The target in data set [1] is human CMG helicase (Cdc45-MCM2-7-GINS) (Homo sapiens, UniProt O75419;P49736;P25205-2;P33991;P33992;Q14566;P33993;Q14691;Q9Y248;Q9BRX5;Q9BRT9 …). In words: cryo-EM structure (3.29 A); 100 uM ATPgS, 5 mM Mg acetate; ATPgS-Mg2+ at MCM6, MCM4, MCM7; ADP at MCM2, MCM3; MCM5 apo; Buffer S: 25 mM HEPES pH 7.5, 50 mM KCl, 5 mM Mg acetate, 2 mM DTT, with 100 uM ATPgS and 4 uM fork DNA, loaded on StrepTrap-bound CMG; eluted with 15 mM desthiobiotin; binding temperature not stated. The settings on record: protein: recombinant; tags: MCM4 N-terminal His8-TEV; Psf2 C-terminal TEV-2xStrepII; copies: 1;1;1;1;1;1;1;1;1;1;1; fork: 40 bp duplex 1:1-40 2:31-70; 30 nt unpaired tails, 3' poly-dT (strand 1) and 5' GC-rich (strand 2).

Data set [2] concerns the molecule itself. As to the kind of experiment: cryo-EM structure; CMGA: AND-1 co-expressed with the CMG subunits in HEK293-F, co-purified; 1 mM ATPγS added, glutaraldehyde cross-linked before grid preparation; 6.77 Å map, CMG structure and AND-1 trimer crystal structure docked as rigid bodies.

B1: fork DNA (70T/70GC) (mixed)
DNA 1: CGTTTTACAACGTCGTGACTGGGCACTTGATCGGCCAACCTTTTTTTTTTTTTTTTTTTTTTTTTTTTTT
DNA 2: CAGGCAGGCAGGCAGGCAGGCAGGCAGGCAGGTTGGCCGATCAAGTGCCCAGTCACGACGTTGTAAAACG
Regarding B1, the binding result in data set [1] was “binds”.

B2: human AND-1, recombinant full length (natural protein, UniProt O75717 1-1129, looked up)
chain: MPATRKPMRYGHTEGHTEVCFDDSGSFIVTCGSDGDVRIWEDLDDDDPKFINVGEKAYSCALKSGKLVTAVSNNTIQVHTFPEGVPDGILTRFTTNANHVVFNGDGTKIAAGSSDFLVKIVDVMDSSQQKTFRGHDAPVLSLSFDPKDIFLASASCDGSVRVWQISDQTCAISWPLLQKCNDVINAKSICRLAWQPKSGKLLAIPVEKSVKLYRRESWSHQFDLSDNFISQTLNIVTWSPCGQYLAAGSINGLIIVWNVETKDCMERVKHEKGYAICGLAWHPTCGRISYTDAEGNLGLLENVCDPSGKTSSSKVSSRVEKDYNDLFDGDDMSNAGDFLNDNAVEIPSFSKGIINDDEDDEDLMMASGRPRQRSHILEDDENSVDISMLKTGSSLLKEEEEDGQEGSIHNLPLVTSQRPFYDGPMPTPRQKPFQSGSTPLHLTHRFMVWNSIGIIRCYNDEQDNAIDVEFHDTSIHHATHLSNTLNYTIADLSHEAILLACESTDELASKLHCLHFSSWDSSKEWIIDLPQNEDIEAICLGQGWAAAATSALLLRLFTIGGVQKEVFSLAGPVVSMAGHGEQLFIVYHRGTGFDGDQCLGVQLLELGKKKKQILHGDPLPLTRKSYLAWIGFSAEGTPCYVDSEGIVRMLNRGLGNTWTPICNTREHCKGKSDHYWVVGIHENPQQLRCIPCKGSRFPPTLPRPAVAILSFKLPYCQIATEKGQMEEQFWRSVIFHNHLDYLAKNGYEYEESTKNQATKEQQELLMKMLALSCKLEREFRCVELADLMTQNAVNLAIKYASRSRKLILAQKLSELAVEKAAELTATQVEEEEEEEDFRKKLNAGYSNTATEWSQPRFRNQVEEDAEDSGEADDEEKPEIHKPGQNSFSKSTNSSDVSAKSGAVTFSSQGRVNPFKVSASSKEPAMSMNSARSTNILDNMGKSSKKSTALSRTTNNEKSPIIKPLIPKPKPKQASAASYFQKRNSQTNKTEEVKEENLKNVLSETPAICPPQNTENQRPKTGFQMWLEENRSNILSDNPDFSDEADIIKEGMIRFRVLSTEERKVWANKAKGETASEGTEAKKRKRVVDESDETENQEEKAKENLNLSKKQKPLDFSTNQKLSAFAFKQE
notes: AND-1, human, full-length ORF from IMAGE cDNA clone 6514641; The tag is 2xStrepII-TEV; no TEV cleavage step is described; Only the SepB domain is visible in the map; also called AND-1 trimer; source: HEK293-F, transient co-transfection with the CMG subunits, co-purified as CMGA
B2: the “stoichiometry N” value in data set [2] worked out at 3.

Source of the values: PMC7337937, “CryoEM structures of human CMG–ATPγS–DNA and CMG–AND-1 complexes” (Nucleic Acids Research, 2020).
